# Reference: IntAct's records for PubMed 17304241
# B1: Protein zyg-11 homolog B (Homo sapiens), Q9C0D3 (parent)
# chain: MPEDQAGAAMEEASPYSLLDICLNFLTTHLEKFCSARQDGTLCLQEPGVFPQEVADRLLRTMAFHGLLNDGTVGIFRGNQMRLKRACIRKAKISAVAFRKAFCHHKLVELDATGVNADITITDIISGLGSNKWIQQNLQCLVLNSLTLSLEDPYERCFSRLSGLRALSITNVLFYNEDLAEVASLPRLESLDISNTSITDITALLACKDRLKSLTMHHLKCLKMTTTQILDVVRELKHLNHLDISDDKQFTSDIALRLLEQKDILPNLVSLDVSGRKHVTDKAVEAFIQQRPSMQFVGLLATDAGYSEFLTGEGHLKVSGEANETQIAEALKRYSERAFFVREALFHLFSLTHVMEKTKPEILKLVVTGMRNHPMNLPVQLAASACVFNLTKQDLAAGMPVRLLADVTHLLLKAMEHFPNHQQLQKNCLLSLCSDRILQDVPFNRFEAAKLVMQWLCNHEDQNMQRMAVAIISILAAKLSTEQTAQLGTELFIVRQLLQIVKQKTNQNSVDTTLKFTLSALWNLTDESPTTCRHFIENQGLELFMRVLESFPTESSIQQKVLGLLNNIAEVQELHSELMWKDFIDHISSLLHSVEVEVSYFAAGIIAHLISRGEQAWTLSRSQRNSLLDDLHSAILKWPTPECEMVAYRSFNPFFPLLGCFTTPGVQLWAVWAMQHVCSKNPSRYCSMLIEEGGLQHLYNIKDHEHTDPHVQQIAVAILDSLEKHIVRHGRPPPCKKQPQARLN
# Variants of: B1
# Conditions: with eloc_human ELOC
row,Variant,effect of a mutation on the interaction
1,C22S,disrupting interaction
2,L18S,disrupting interaction
